These are literature values, as cited in article PMC3774674.

In the data set the target is E-cadherin EC12 (Mus musculus) (UniProt P09803).

By Kd is commonly meant the equilibrium constant for the complex coming apart. E-cadherin EC12 (from UniProt P09803): the Kd was 98.6 µM.
